Experimental data as given in IntAct's records for PubMed 18354501.
Each block holds one substance with its values, some of them ahead of it.

How the values were obtained:
t2ea_human GTF2E1 [1] = molecular target: t2ea_human GTF2E1 (UniProt P29083)
t2ea_human GTF2E1 [2] = molecular target: t2ea_human GTF2E1 (UniProt P29083); remark: listed apart in the source
t2ea_human GTF2E1 [3] = molecular target: t2ea_human GTF2E1 (UniProt P29083); remark: listed apart in the source
t2ea_human GTF2E1 [4] = molecular target: t2ea_human GTF2E1 (UniProt P29083); remark: listed apart in the source
t2ea_human GTF2E1 [5] = molecular target: t2ea_human GTF2E1 (UniProt P29083); remark: listed apart in the source
t2ea_human GTF2E1 [6] = molecular target: t2ea_human GTF2E1 (UniProt P29083); remark: listed apart in the source

Chain of t2ea_human GTF2E1 (P29083 whole entry): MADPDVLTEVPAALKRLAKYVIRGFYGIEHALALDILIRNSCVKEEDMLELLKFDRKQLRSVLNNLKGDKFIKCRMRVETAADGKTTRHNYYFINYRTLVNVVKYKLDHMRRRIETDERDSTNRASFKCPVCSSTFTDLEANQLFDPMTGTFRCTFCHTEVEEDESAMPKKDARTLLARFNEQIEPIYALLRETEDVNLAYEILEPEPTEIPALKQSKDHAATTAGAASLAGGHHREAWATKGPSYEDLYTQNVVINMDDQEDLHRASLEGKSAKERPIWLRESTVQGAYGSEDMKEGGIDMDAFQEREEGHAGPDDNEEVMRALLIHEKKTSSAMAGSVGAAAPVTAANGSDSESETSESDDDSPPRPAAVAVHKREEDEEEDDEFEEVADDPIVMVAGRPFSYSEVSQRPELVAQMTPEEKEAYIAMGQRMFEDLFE
Chain of General transcription factor IIH subunit 1 (Homo sapiens), P32780 Q66A (P32780 whole entry Q66A): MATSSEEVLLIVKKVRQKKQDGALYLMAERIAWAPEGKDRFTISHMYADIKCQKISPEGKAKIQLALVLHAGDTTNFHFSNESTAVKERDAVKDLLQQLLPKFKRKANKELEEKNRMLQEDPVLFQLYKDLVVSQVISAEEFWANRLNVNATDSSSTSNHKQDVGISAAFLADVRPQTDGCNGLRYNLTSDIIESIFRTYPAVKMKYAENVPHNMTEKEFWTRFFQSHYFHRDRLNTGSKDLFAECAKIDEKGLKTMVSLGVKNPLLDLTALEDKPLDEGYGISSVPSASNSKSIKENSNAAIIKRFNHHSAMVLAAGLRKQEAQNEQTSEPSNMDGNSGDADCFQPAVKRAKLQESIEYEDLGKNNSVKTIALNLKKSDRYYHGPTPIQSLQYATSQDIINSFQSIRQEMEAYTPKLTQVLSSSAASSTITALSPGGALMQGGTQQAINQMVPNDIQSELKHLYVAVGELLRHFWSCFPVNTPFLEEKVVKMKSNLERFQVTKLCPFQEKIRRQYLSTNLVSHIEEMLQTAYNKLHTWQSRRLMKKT
Chain of General transcription factor IIH subunit 1 (Homo sapiens), P32780 V68A (P32780 whole entry V68A): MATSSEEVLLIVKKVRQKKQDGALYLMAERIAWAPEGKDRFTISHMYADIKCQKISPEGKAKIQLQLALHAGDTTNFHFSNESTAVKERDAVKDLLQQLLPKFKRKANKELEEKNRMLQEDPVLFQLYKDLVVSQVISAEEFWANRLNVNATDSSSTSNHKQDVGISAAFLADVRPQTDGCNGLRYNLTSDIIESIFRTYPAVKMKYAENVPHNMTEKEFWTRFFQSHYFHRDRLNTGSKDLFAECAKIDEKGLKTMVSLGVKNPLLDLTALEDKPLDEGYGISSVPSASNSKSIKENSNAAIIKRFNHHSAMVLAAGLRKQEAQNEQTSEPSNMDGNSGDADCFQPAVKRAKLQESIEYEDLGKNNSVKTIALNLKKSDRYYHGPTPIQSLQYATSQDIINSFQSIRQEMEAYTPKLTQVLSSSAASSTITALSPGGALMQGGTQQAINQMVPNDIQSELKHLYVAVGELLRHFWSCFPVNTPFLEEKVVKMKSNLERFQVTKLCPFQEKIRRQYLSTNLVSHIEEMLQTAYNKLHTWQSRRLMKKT
Chain of General transcription factor IIH subunit 1 (Homo sapiens), P32780 K19A (P32780 whole entry K19A): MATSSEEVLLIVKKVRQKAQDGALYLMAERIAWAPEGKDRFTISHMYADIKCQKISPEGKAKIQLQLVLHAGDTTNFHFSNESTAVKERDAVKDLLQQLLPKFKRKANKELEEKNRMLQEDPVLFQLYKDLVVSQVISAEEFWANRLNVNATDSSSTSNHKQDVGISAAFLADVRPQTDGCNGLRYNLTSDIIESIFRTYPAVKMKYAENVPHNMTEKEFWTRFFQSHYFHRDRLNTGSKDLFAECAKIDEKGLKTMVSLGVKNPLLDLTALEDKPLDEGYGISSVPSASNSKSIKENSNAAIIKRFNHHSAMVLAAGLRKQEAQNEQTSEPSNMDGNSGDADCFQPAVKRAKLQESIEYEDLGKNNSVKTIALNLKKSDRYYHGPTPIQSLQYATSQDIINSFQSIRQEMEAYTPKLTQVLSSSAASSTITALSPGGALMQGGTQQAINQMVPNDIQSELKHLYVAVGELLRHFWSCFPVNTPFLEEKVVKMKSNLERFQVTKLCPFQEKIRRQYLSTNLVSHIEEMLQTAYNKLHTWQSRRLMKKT
Chain of General transcription factor IIH subunit 1 (Homo sapiens), P32780 K18A (P32780 whole entry K18A): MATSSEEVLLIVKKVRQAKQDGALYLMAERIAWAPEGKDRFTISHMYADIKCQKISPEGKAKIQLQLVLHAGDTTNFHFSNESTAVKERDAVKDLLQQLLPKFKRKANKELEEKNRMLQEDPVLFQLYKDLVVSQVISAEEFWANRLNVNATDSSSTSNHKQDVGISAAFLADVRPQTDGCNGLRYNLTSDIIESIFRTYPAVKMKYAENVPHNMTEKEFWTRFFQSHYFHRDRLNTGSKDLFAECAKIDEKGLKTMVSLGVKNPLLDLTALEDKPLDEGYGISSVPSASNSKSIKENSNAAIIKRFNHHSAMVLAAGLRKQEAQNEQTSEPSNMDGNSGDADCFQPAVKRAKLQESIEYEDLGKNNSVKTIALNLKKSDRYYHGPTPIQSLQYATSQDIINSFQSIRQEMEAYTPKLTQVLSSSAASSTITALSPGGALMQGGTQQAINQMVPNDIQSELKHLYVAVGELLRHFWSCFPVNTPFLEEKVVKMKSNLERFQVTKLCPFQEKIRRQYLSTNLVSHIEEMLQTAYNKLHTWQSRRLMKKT
Chain of General transcription factor IIH subunit 1 (Homo sapiens), P32780 K54A (P32780 whole entry K54A): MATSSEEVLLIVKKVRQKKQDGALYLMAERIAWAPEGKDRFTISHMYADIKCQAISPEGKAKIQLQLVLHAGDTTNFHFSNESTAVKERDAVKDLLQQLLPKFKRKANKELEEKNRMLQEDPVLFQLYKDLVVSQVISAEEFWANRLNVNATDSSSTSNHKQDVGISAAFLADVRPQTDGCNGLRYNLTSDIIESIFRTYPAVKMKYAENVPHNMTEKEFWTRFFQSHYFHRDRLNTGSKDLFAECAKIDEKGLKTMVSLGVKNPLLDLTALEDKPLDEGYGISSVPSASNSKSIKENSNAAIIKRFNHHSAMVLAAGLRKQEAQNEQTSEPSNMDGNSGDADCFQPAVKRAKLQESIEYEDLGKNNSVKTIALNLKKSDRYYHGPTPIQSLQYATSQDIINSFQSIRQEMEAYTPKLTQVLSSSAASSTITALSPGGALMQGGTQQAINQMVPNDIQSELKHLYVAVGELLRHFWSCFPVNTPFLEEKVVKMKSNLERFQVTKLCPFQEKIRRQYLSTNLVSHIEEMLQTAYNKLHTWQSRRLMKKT

Substance: General transcription factor IIH subunit 1 (Homo sapiens), P32780 Q66A
effect of a mutation on the interaction (t2ea_human GTF2E1 [2]): disrupting interaction | effect of a mutation on the interaction (t2ea_human GTF2E1 [3]): decreasing interaction

Substance: General transcription factor IIH subunit 1 (Homo sapiens), P32780 V68A
effect of a mutation on the interaction (t2ea_human GTF2E1 [6]): decreasing interaction

More lines, now with the values ahead:

effect of a mutation on the interaction (t2ea_human GTF2E1 [1]): disrupting interaction
Substance: General transcription factor IIH subunit 1 (Homo sapiens), P32780 K54A

effect of a mutation on the interaction (t2ea_human GTF2E1 [4]): disrupting interaction
Substance: General transcription factor IIH subunit 1 (Homo sapiens), P32780 K19A

effect of a mutation on the interaction (t2ea_human GTF2E1 [5]): decreasing interaction
Substance: General transcription factor IIH subunit 1 (Homo sapiens), P32780 K18A
